Where a chain is given by its changes, count along the chain named. Names may count otherwise.
Experiments:
Assay type in all cases: cell-based, human
[1] = system: wild-type and variant SNAP-GIPR; experiment: Surface SNAP-GIPR expression (SNAP-tag labelling) in INS-1 cells; details: Fig 4G; Mean
In short: (§1)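 Read-out: whole-cell fluorescence of surface-only SNAP label (Alexa Fluor 647, 500 nM, 10 min, RT), wide-field 20X, several FOVs per well. Flat-field corrected, phase-contrast masked, nontransfected-well signal subtracted; normalized to experiment mean or wild-type.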

[2] = system: wild-type and variant SNAP-GIPR; experiment: Constitutive and agonist-mediated internalization, reversible SNAP-tag labelling, INS-1 cells; parameters: key to Internalisation, GIP-only / Internalisation, Vehicle / Internalisation, +GIP: % internalization: residual fluorescence after Mesna vs pre-Mesna; details: Mean; for +GIP internalisation (100 nM) / GIP-specific internalisation (100 nM) / Constitutive internalisation (100 nM): Fig 4G; for +GIP internalisation (100 nM) / GIP-specific internalisation (100 nM): GIP 100 nM; for Internalisation, +GIP / Internalisation, GIP-only / Internalisation, Vehicle: Fig S4C, INS-1
In short: (§2)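 Percentage internalization is read as the fraction of specific SNAP fluorescence that survives Mesna stripping, compared with the image taken before Mesna. Wells are imaged in TNE buffer at pH 8.6 and again after 10 min.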

[3] = system: wild-type and variant SNAP-GIPR; experiment: Surface SNAP-GIPR expression (SNAP-tag labelling) in AD293 cells; details: for AD293 Surface: Fig S3E, mean; for Surface SNAP-GIPR expression: sheet Fig 1C;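 for all read-outs here: scaled to the experimental average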
In short: as §1

[4] = system: wild-type and variant SNAP-GIPR; experiment: Single-concentration GIP cAMP response by HTRF in AD293 cells; details: Fig S3F, HTRF, mean;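 note: ratio to experiment-wide average response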
Experimental: (§3) All variants were tested in parallel on each occasion to control for transfection efficiency differences between experiments.

[5] = system: wild-type and variant SNAP-GIPR; experiment: Single-concentration GIP cAMP response by HTRF in INS-1 cells; details: Fig S3E, mean
Experimental: as §3

[6] = system: wild-type and variant SNAP-GIPR; experiment: Constitutive and agonist-mediated internalization, reversible SNAP-tag labelling, AD293 cells; parameters: key to Internalisation, Vehicle / Internalisation, +GIP / Internalisation, GIP-only: % internalization: residual fluorescence after Mesna vs pre-Mesna; Surface expression: unit not given here; details: Mean; for +GIP internalisation (100 nM) / GIP-specific internalisation (100 nM) / Constitutive internalisation (100 nM) / Surface expression: Fig 4E; for +GIP internalisation (100 nM) / GIP-specific internalisation (100 nM): GIP 100 nM; for Internalisation, +GIP / Internalisation, GIP-only / Internalisation, Vehicle: Fig S4C, AD293
In short: as §2

[7] = system: wild-type and variant SNAP-GIPR; experiment: cADDis cAMP imaging in AD293 cells, ensemble, expression-matched and per decile; details: Fig S3F, cADDis, mean;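 note: Ensemble cells as % of IBMX/FSK response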
In short: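 Surface GIPR and cAMP are measured in individual AD293 cells coexpressing SNAP-tagged receptor and the green cADDis biosensor, imaged live at 37°C. Responses are reported ensemble, expression-matched against wild-type deciles with extremes trimmed, or within each variant's own surface deciles.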

[8] = column repeated, paired with cAMP 100 nM

B1: R183Q (protein, UniProt P48546 22-466, looked up, variant R183Q)
Gastric inhibitory …: RAETGSKGQTAGELYQRWERYRRECQETLAAAEPPSGLACNGSFDMYVCWDYAAPNATARASCPWYLPWHHHVAAGFVLRQCGSDGQWGLWRDHTQCENPEKNEAFLDQRLILERLQVMYTVGYSLSLATLLLALLILSLFRRLHCTRNYIHINLFTSFMLQAAAILSRDRLLPRPGPYLGDQALALWNQALAACRTAQIVTQYCVGANYTWLLVEGVYLHSLLVLVGGSEEGHFRYYLLLGWGAPALFVIPWVIVRYLYENTQCWERNEVKAIWWIIRTPILMTILINFLIFIRILGILLSKLRTRQMRCRDYRLRLARSTLTLVPLLGVHEVVFAPVTEEQARGALRFAKLGFEIFLSSFQGFLVSVLYCFINKEVQSEIRRGWHHCRLRRSLGEEQRQLPERAFRALPSGSGPGEVPTSRGLSSGTLPGPGNEASRELESYC
Surface expression [1]: 0.8445
+GIP internalisation (100 nM) [2]: 0.3116
GIP-specific internalisation (100 nM) [2]: 0.02961
Constitutive internalisation (100 nM) [2]: 0.282
Internalisation, +GIP [2]: 37.4683
Internalisation, GIP-only [2]: 3.708
Internalisation, Vehicle [2]: 33.76
AD293 Surface [3, 8]: 0.6425
AD293 Surface ([3]; paired with cAMP 100 pM): 0.6425
Surface SNAP-GIPR expression ([3]; replicate 1): 0.7543
Surface SNAP-GIPR expression ([3]; replicate 2): 1.106
Surface SNAP-GIPR expression ([3]; replicate 3): 0.9536
Surface SNAP-GIPR expression ([3]; replicate 4): 0.232
Surface SNAP-GIPR expression ([3]; replicate 5): 0.7423
Surface SNAP-GIPR expression ([3]; replicate 6): 0.6069
Surface SNAP-GIPR expression ([3]; replicate 7): 1.15
Surface SNAP-GIPR expression ([3]; replicate 8): 0.9044
Surface SNAP-GIPR expression ([3]; replicate 9): 0.5747
Surface SNAP-GIPR expression ([3]; replicate 10): 0.6709
Surface SNAP-GIPR expression ([3]; replicate 11): 0.6959
Surface SNAP-GIPR expression ([3]; replicate 12): 0.6048
Surface SNAP-GIPR expression ([3]; replicate 13): 0.2083
Surface SNAP-GIPR expression ([3]; replicate 14): 0.4922
Surface SNAP-GIPR expression ([3]; replicate 15): 0.6065
Surface SNAP-GIPR expression ([3]; replicate 16): 0.716
Surface SNAP-GIPR expression ([3]; replicate 17): 0.7375
Surface SNAP-GIPR expression ([3]; replicate 18): 0.5932
Surface SNAP-GIPR expression ([3]; replicate 19): 0.8135
Surface SNAP-GIPR expression ([3]; replicate 20): 0.672
Surface SNAP-GIPR expression ([3]; replicate 21): 0.7253
Surface SNAP-GIPR expression ([3]; replicate 22): 0.7101
Surface SNAP-GIPR expression ([3]; replicate 23): 0.6734
Surface SNAP-GIPR expression ([3]; replicate 24): 0.6371
Surface SNAP-GIPR expression ([3]; replicate 25): 0.6035
Surface SNAP-GIPR expression ([3]; replicate 26): 0.6412
Surface SNAP-GIPR expression ([3]; replicate 27): 0.6638
Surface SNAP-GIPR expression ([3]; replicate 28): 0.5579
Surface SNAP-GIPR expression ([3]; replicate 29): 0.6957
Surface SNAP-GIPR expression ([3]; replicate 30): 0.2984
Surface SNAP-GIPR expression ([3]; replicate 31): 0.1821
Surface SNAP-GIPR expression ([3]; replicate 32): 0.3718
Surface SNAP-GIPR expression ([3]; replicate 33): 0.3193
Surface SNAP-GIPR expression ([3]; replicate 34): 0.6173
Surface SNAP-GIPR expression ([3]; replicate 35): 0.7865
Surface SNAP-GIPR expression ([3]; replicate 36): 0.6007
Surface SNAP-GIPR expression ([3]; replicate 37): 0.5904
Surface SNAP-GIPR expression ([3]; replicate 38): 0.7906
Surface SNAP-GIPR expression ([3]; replicate 39): 0.7153
Surface SNAP-GIPR expression ([3]; replicate 40): 0.6916
Surface SNAP-GIPR expression ([3]; replicate 41): 0.6376
AD293 100 pM HTRF [4]: 0.04104
AD293 100 nM HTRF [4]: 0.2411
INS-1 cAMP (100 nM) [5]: 0.04521
+GIP internalisation (100 nM) [6]: 0.3247
GIP-specific internalisation (100 nM) [6]: 0.02672
Constitutive internalisation (100 nM) [6]: 0.298
Surface expression [6]: 0.6535
Internalisation, +GIP [6]: 49.3267
Internalisation, GIP-only [6]: 3.992
Internalisation, Vehicle [6]: 45.335
AD293 100 pM cADDis [7]: -1.0843
AD293 100 nM cADDis [7]: 18.64

B2: S64A (protein, UniProt P48546 22-466, looked up, variant S64A)
Gastric inhibitory …: B1 Gastric inhibitory … with S43A, Q162R
Surface expression [1]: 0.6025
+GIP internalisation (100 nM) [2]: 0.3425
GIP-specific internalisation (100 nM) [2]: 0.05503
Constitutive internalisation (100 nM) [2]: 0.2874
Internalisation, +GIP [2]: 52.768
Internalisation, GIP-only [2]: 8.16
Internalisation, Vehicle [2]: 44.608
AD293 Surface [3, 8]: 0.5377
AD293 Surface ([3]; paired with cAMP 100 pM): 0.5377
Surface SNAP-GIPR expression ([3]; replicate 1): 0.5948
Surface SNAP-GIPR expression ([3]; replicate 2): 0.3831
Surface SNAP-GIPR expression ([3]; replicate 3): 0.1917
Surface SNAP-GIPR expression ([3]; replicate 4): 0.03284
Surface SNAP-GIPR expression ([3]; replicate 5): 0.714
Surface SNAP-GIPR expression ([3]; replicate 6): 0.449
Surface SNAP-GIPR expression ([3]; replicate 7): 0.6736
Surface SNAP-GIPR expression ([3]; replicate 8): 0.7024
Surface SNAP-GIPR expression ([3]; replicate 9): 0.4646
Surface SNAP-GIPR expression ([3]; replicate 10): 0.5884
Surface SNAP-GIPR expression ([3]; replicate 11): 0.4154
Surface SNAP-GIPR expression ([3]; replicate 12): 0.584
Surface SNAP-GIPR expression ([3]; replicate 13): 0.53
Surface SNAP-GIPR expression ([3]; replicate 14): 0.7656
Surface SNAP-GIPR expression ([3]; replicate 15): 0.5316
Surface SNAP-GIPR expression ([3]; replicate 16): 0.5279
Surface SNAP-GIPR expression ([3]; replicate 17): 0.5713
Surface SNAP-GIPR expression ([3]; replicate 18): 0.5329
Surface SNAP-GIPR expression ([3]; replicate 19): 0.5212
Surface SNAP-GIPR expression ([3]; replicate 20): 0.6932
Surface SNAP-GIPR expression ([3]; replicate 21): 0.7203
Surface SNAP-GIPR expression ([3]; replicate 22): 0.5804
Surface SNAP-GIPR expression ([3]; replicate 23): 0.6278
Surface SNAP-GIPR expression ([3]; replicate 24): 0.5394
Surface SNAP-GIPR expression ([3]; replicate 25): 0.4918
Surface SNAP-GIPR expression ([3]; replicate 26): 0.6002
Surface SNAP-GIPR expression ([3]; replicate 27): 0.6328
Surface SNAP-GIPR expression ([3]; replicate 28): 0.5573
Surface SNAP-GIPR expression ([3]; replicate 29): 0.4754
Surface SNAP-GIPR expression ([3]; replicate 30): 0.4312
Surface SNAP-GIPR expression ([3]; replicate 31): 0.4378
Surface SNAP-GIPR expression ([3]; replicate 32): 0.606
Surface SNAP-GIPR expression ([3]; replicate 33): 0.6793
Surface SNAP-GIPR expression ([3]; replicate 34): 0.4646
Surface SNAP-GIPR expression ([3]; replicate 35): 0.5832
Surface SNAP-GIPR expression ([3]; replicate 36): 0.4138
Surface SNAP-GIPR expression ([3]; replicate 37): 0.5632
Surface SNAP-GIPR expression ([3]; replicate 38): 0.4283
Surface SNAP-GIPR expression ([3]; replicate 39): 0.6589
Surface SNAP-GIPR expression ([3]; replicate 40): 0.5446
Surface SNAP-GIPR expression ([3]; replicate 41): 0.5428
AD293 100 pM HTRF [4]: 0.1562
AD293 100 nM HTRF [4]: 1.061
INS-1 cAMP (100 nM) [5]: 1.062
+GIP internalisation (100 nM) [6]: 0.3536
GIP-specific internalisation (100 nM) [6]: 0.06262
Constitutive internalisation (100 nM) [6]: 0.291
Surface expression [6]: 0.5133
Internalisation, +GIP [6]: 68.8859
Internalisation, GIP-only [6]: 12.125
Internalisation, Vehicle [6]: 56.7609
AD293 100 pM cADDis [7]: 21.6969
AD293 100 nM cADDis [7]: 34.42

Reference: publication PMC13544220, “Glycemic and bodyweight effects of GIPR coding variation reflect differences in surface expression and intrinsic functional impairment” (Science Advances, 2026)
